Results published in patent publication US5804555A, “Antioxidant” (Morinaga Milk Industry Co., Ltd., priority 1992, dated 1998).

Assay: Test 1: antioxidant effect on linoleic acid, peroxides by ferric thiocyanate method
Format: biochemical
Conditions: 0.2% added to linoleic acid, 60° C.
Method: A sample was prepared by adding dl-α tocopherol (manufactured by Wako Jun-yaku Kogyo Company), bovine lactoferrin (manufactured by Sigma Company), hydrolysate of lactoferrin (prepared by the same method as in the Example 2), or peptide (prepared by the same method as in the Example 3) to a final concentration of 0.2% (weight percentage; same applies hereafter except for the degree of decomposition) to commercially available linoleic acid (manufactured by Wako Jun-Yaku Kogyo Company) containing no additive. Hereafter, the thus prepared samples are individually referred to as […].
Antioxidant effect of the individual samples was tested by the method of Mitsuda et al.(Eiyo to Shokuryo, Vol. 19, p. 210, 1966) described below.
The above-mentioned samples were added to a mixed solution containing 10 ml of ethanol, 10 ml of 0.1M phosphate buffer solution (pH: 7.0), and 5 ml of deionized water so as to achieve a final concentration of linoleic acid of […](mol/l). This solution was placed in a vial bottle having a capacity of 50 ml, and the closely plugged bottle was held in an incubator at 60° C. The total volume was always adjusted to 25 ml by reducing the above-mentioned ionized water, depending upon the quantity of added sample. At prescribed time intervals, 0.1 ml was sampled from this vial bottle to measure the quantity of peroxides by the following ferric thiocyanate method.
To the sample solution in an amount of 0.1 ml, 4.7 ml of 75% ethanol, 0.1 ml of 30% ammonium rhodanide, and 0.1 ml of 3.5% hydrochloric acid solution of 2×10^-2 M ferrous chloride were added, and absorbance at 500 nm was measured upon the lapse of just three minutes.

B1: Sample 3: Test 1 Sample 3: bovine lactoferrin (Sigma Company) added to linoleic acid (protein)
chain: APRKNVRWCTISQPEWFKCRRWQWRMKKLGAPSITCVRRAFALECIRAIAEKKADAVTLDGGMVFEAGRDPYKLRPVAAEIYGTKESPQTHYYAVAVVKKGSNFQLDQLQGRKSCHTGLGRSAGWIIPMGILRPYLSWTESLEPLQGAVAKFFSASCVPCIDRQAYPNLCQLCKGEGENQCACSSREPYFGYSGAFKCLQDGAGDVAFVKETTVFENLPEKADRDQYELLCLNNSRAPVDAFKECHLAQVPSHAVVARSVDGKEDLIWKLLSKAQEKFGKNKSRSFQLFGSPPGQRDLLFKDSALGFLRIPSKVDSALYLGSRYLTTLKNLRETAEEVKARYTRVVWCAVGPEEQKKCQQWSQQSGQNVTCATASTTDDCIVLVLKGEADALNLDGGYIYTAGKCGLVPVLAENRKSSKHSSLDCVLRPTEGYLAVAVVKKANEGLTWNSLKDKKSCHTAVDRTAGWNIPMGLIVNQTGSCAFDEFFSQSCAPGADPKSRLCALCAGDDQGLDKCVPNSKEKYYGYTGAFRCLAEDVGDVAFVKNDTVWENTNGESTADWAKNLNREDFRLLCLDGTRKPVTEAQSCHLAVAPNHAVVSRSDRAAHVKQVLLHQQALFGKNGKNCPDKFCLFKSETKNLLFNDNTECLAKLGGRPTYEEYLGTEYVTAIANLKKCSTSPLLEACAFLTR
Period of preservation 0 days
  Degree of peroxidation (absorbance at 500 nm): 0
Period of preservation 3 days
  Degree of peroxidation (absorbance at 500 nm): 0.23
Period of preservation 6 days
  Degree of peroxidation (absorbance at 500 nm): 0.30
Period of preservation 10 days
  Degree of peroxidation (absorbance at 500 nm): 0.31
Period of preservation 13 days
  Degree of peroxidation (absorbance at 500 nm): 0.32
